Assay results published in patent EP4630447A2.

Key:
Assay in all cases: sVNT, Table 2
[1] = biological target: SARS-CoV-2 spike trimer, BQ.1 (SARS-CoV-2)
[2] = biological target: SARS-CoV-2 spike trimer, BQ.1.1 (SARS-CoV-2)
[3] = biological target: SARS-CoV-2 spike trimer, XBB (SARS-CoV-2)
[4] = biological target: SARS-CoV-2 spike trimer, XBB.1 (SARS-CoV-2)
[5] = biological target: SARS-CoV-2 spike trimer, XBB.1.5 (SARS-CoV-2)

Measured: IC50

Bebtelovimab (antibody)
> 1 µg/mL: all assays above
